Laboratory results from KR20180079232A (dated 2018).

Target: T1, L1CAM (L1 cell adhesion molecule, CD171), human (human, UniProt P32004 20-1257)
T1 construct: whole, on cells; The target sat on L1CAM-expressing cells (SCK-L1, Choi-CK, TFK-1); For the western blots it was the membrane protein fraction of those cells after SDS-PAGE; also called 막 L1CAM; membrane L1CAM
Assay: confocal microscopy of L1CAM-expressing cells treated with Ab417 (10 ㎍/mL); surface-bound antibody detected with anti-human IgG

T1 sequence (P32004 20-1257): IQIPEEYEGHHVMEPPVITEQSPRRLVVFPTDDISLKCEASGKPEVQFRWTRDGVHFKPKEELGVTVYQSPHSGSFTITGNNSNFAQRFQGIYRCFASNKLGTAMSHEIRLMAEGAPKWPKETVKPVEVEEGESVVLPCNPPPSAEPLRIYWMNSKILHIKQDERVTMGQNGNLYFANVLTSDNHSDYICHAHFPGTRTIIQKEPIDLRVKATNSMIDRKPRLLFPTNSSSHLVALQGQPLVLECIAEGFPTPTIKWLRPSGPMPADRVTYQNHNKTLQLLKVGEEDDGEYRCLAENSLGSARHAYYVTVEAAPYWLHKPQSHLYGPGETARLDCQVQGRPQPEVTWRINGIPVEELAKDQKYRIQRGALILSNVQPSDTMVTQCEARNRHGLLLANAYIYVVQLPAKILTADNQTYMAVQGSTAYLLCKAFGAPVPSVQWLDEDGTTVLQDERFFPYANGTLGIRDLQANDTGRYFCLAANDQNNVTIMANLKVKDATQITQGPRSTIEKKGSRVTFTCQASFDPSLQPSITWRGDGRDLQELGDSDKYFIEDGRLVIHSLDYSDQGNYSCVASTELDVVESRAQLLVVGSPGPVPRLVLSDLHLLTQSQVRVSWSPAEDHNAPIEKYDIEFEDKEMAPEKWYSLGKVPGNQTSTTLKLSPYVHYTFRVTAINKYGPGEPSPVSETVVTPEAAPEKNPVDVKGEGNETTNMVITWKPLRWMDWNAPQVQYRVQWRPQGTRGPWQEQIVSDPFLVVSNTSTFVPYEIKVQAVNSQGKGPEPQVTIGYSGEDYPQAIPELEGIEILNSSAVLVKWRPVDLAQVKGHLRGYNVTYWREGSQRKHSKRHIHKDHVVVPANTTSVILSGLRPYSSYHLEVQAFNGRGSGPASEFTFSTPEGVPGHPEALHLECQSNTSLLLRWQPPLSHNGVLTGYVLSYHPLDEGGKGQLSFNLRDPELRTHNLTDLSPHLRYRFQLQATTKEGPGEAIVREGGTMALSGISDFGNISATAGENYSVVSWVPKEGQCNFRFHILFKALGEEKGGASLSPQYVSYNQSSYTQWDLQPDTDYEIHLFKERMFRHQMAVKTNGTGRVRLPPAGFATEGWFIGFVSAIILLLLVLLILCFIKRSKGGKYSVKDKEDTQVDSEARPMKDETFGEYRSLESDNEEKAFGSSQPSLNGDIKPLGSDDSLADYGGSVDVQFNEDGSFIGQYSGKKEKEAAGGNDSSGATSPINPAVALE

- binding result: binds
B1: Ab417 항체 (anti-L1CAM antibody Ab417) (antibody, V domains shown)
VH: EVQLVESGGGVVQPGRSLRLSCAASGFTFSRFGMHWVRQAPGKGLEWVAFISNDGSNKYYADSVKGRFTISRDNSKNTLYLQMNSLRPEDTAVYYCARGRAYGSGSLFDPWGQGTLVTVSS
VL: DIQLTQSPSSLSASVGDRVTITCRASRTISIYVNWYRQRPGKAPESLIYAASNLHSGVPSRFSGSGSGTDFTLTISSLQPEDFATYYCQQSIGRGVVTFGQGTKLEIK
notes: It is a whole antibody made in CHO-DG44 cell line #9-20 and purified on protein A. It was detected with anti-human IgG (H+L) and anti-human IgG (Fc-specific)
